The values below come from US20180326053A1 (OKLAHOMA MEDICAL RESEARCH FOUNDATION, published 2018).

For test [1], the target named is T1, human Protein C (unactivated, zymogen) (human, UniProt P04070 43-461).
T1 construct: mature; also called PC; hPC
Kind of test: ELISA, plate coated with human PC, IgG titrated (PC-ELISA). Here is the method: (§1) Plates (Nunc, cat#442404) were coated with 100 μl of human aPC (1 μg/ml) or hPC (2 μg/ml) diluted in DPBS (Gibco, cat#14040) overnight (o/n) at 4° C. After washing, the ELISA plate was blocked with 200 μl MPBST for 1 hr at RT, and tapped dry on a stack of paper towels. To each well 100 μl of IgG to be tested was added, and incubated for 1 hr at RT (for EC₅₀ determinations 1:3 dilutions were performed starting at 20 nM). Plates were washed 5× with PBST. 100 μl of anti-hIgG Fc-HRP (Sigma, cat#A0170) diluted 1:10,000 in PBST was added to each well. Plates were washed and 100 μl/well of TMB substrate was added and incubated at room temperature for 5 min. 100 μl/well of 1 N HCl was added to terminate the reaction. The plate was read with an ELISA plate reader (Biotek, Elx405) at 450 nm wavelength.
On the technique in general: An ELISA detects its analyte on a solid surface through an enzyme-linked reagent.

The target in test [2] is T2, human activated Protein C (human, Light chain (chain 1): the Gla domain holds gamma-carboxyglutamates, from memory at pos 6, 7, 14, 16, 19, 20, 25, 26 and 29, written E. Pos 71 is beta-hydroxy-Asp, written D. N-glycans are present. …).
T2 construct: also called aPC; APC
T2 light: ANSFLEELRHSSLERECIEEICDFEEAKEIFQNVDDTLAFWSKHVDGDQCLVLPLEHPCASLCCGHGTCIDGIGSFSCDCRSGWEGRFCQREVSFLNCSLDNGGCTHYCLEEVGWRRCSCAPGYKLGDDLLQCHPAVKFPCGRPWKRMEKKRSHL
T2 heavy: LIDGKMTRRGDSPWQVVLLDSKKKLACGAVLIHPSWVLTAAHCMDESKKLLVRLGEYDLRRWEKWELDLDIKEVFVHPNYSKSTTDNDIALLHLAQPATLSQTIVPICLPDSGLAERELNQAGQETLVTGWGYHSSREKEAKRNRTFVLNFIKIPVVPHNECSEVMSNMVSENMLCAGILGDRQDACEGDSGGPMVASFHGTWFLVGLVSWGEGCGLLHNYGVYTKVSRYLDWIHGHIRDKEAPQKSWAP
As to the kind of experiment: aPC-ELISA, human aPC coated, IgG titrated. The procedure: as §1

The target of test [3] is T2, human activated Protein C. Kind of test: SPR, human aPC. Background: In SPR one partner is held on a chip, and binding of the other changes the refractive index at the surface.
Test [4] concerns the target T1, human Protein C (unactivated, zymogen). Kind of test: PC-ELISA, hPC coated. Here is the method: as §1
Test [5] addresses T2, human activated Protein C. Kind of test: Biacore (SPR).

B1: TPP-3656 (HU1573-V3-hIgG2Kappa) (antibody, V domains shown)
VH: EVQLVESGGGLVQPGGSLRLSCAASGFTFSNYYLNWVRQAPGKGLEWVGDIRLKSNNYEKHYAESVKGRFTISRDDSKNSLYLQMNSLKTEDTAVYYCAREGDYFDYWGQGTLVTVSS
VL: DIVLTQSPASLAVSPGQRATITCKASESVDSFGATFMHWYQQKPGQPPKLLIYLASNLESGVPARFSGSGSGTDFTLTINPVEANDTANYYCQQNNEDPYTFGQGTKLEIKR
notes: also called TPP-3656 VK7-3
Consider B1, for which the binding result in test [1] was “no binding (tested: 10 µM (log M -5))”. The molecule also gave an EC50 in test [2] of 0.67 nM.

B2: TPP-3657 (HU1573-V2-hIgG2Kappa) (antibody, V domains shown)
VH: EVQLVESGGGLVQPGGSLRLSCAASGFTFSNYYLNWVRQAPGKGLEWVADIKSNNYEKHYAESVKGRFTISRDNAKNSLYLQMNSLRAEDTAVYYCAREGDYFDYWGQGTLVTVSS
VL: DIVLTQSPASLAVSPGQRATITCKASESVDSFGATFMHWYQQKPGQPPKLLIYLASNLESGVPARFSGSGSGTDFTLTINPVEANDTANYYCQQNNEDPYTFGQGTKLEIKR
notes: also called TPP-3657 VK7-3
Regarding B2, in test [1], the binding result is on record as “no binding (tested: 10 µM (log M -5))”. Further, the EC50 in test [2] is 0.43 nM.

B3: TPP-3356 (H1573VK2-VH1Cgl1-hIgG2Kappa) (antibody, V domains shown)
VH: EVQLVESGGGLVQPGGSLRLSCAASGFTFSNYYLNWVRQAPGKGLEWVADIRLKSNNYEKHYAESVKGRFTISRDDSKNSLYLQMNSLKTEDTAVYYCIREGDYFDYWGQGTTVTVSS
VL: DIVMTQTPLSLSVTPGQPASISCKASESVDSFGATFMHWYLQKPGQPPQLLIYLASNLESGVPDRFSGSGSGTDFTLKISRVEAEDVGVYYCQQNNEDPYTFGQGTKLEIKR
notes: also called TPP-3356 VK2D-29
In test [3], B3 had a Kd of 13.6 nM. Further, the midpoint of the response in test [2], the EC50, lay at 0.5 nM. The binding result in test [4] is given as “no binding (tested: up to 10 µM)”.

B4: TPP-4885 (BAY1896502) (antibody, human IgG2, kappa, V domains shown)
VH: EVQLVESGGGLVQPGGSLRLSCAASGFTFSNYYLNWVRQAPGKGLEWVGDIRLKSNNYEKHYAESVKGRFTISRDDSKNSLYLQMNSLKTEDTAVYYCAREGDYFDYWGQGTLVTVSS
VL: DIVLTQSPASLAVSPGQRATITCKASESVDSFGATFMHWYQQKPGQPPKLLIYLASNLESGVPARFSGSGSGTDFTLTINPVEADDTANYYCQQNNEDPYTFGQGTKLEIKR
notes: TPP-3656 with the N85D mutation in the light chain; IgG2/kappa like TPP-3656; also called type II ab BAY1896502
Molecule B4 registered a dissociation constant (Kd) in test [5] of 14 nM.

B5: TPP-3357 (H1573Vk2A-VH1Cgl2-hIgG2Kappa) (antibody, V domains shown)
VH: EVQLVESGGGLVQPGGSLRLSCAASGFTFSSYYMNWVRQAPGKGLEWVSDIRLKSNNYEKHYADSVKGRFTISRDNAKNSLYLQMNSLRAEDTAVYYCAREGDYFDYWGQGTLVTVSS
VL: DIVLTQTPLSLSVTPGQPASISCRASESVDSFGATFMHWYLQKPGQPPQLLIYLASNLESGVPDRFSGSGSGTDFTLKISRVEAEDVGVYYCQQNNEDPYTFGQGTKLEIKR
Turning to B5, the Kd in test [3] came to 23.4 nM.

B6: TPP-3658 (HU1573-V1-hIgG2Kappa) (antibody, V domains shown)
VH: EVQLVESGGGLVQPGGSLRLSCAASGFTFSNYYLNWVRQAPGKGLEWVADIRLKSNNYEKHYAESVKGRFTISRDDSKNSLYLQMNSLKTEDTAVYYCIREGDYFDYWGQGTTVTVSS
VL: DIVLTQSPASLAVSPGQRATITCKASESVDSFGATFMHWYQQKPGQPPKLLIYLASNLESGVPARFSGSGSGTDFTLTINPVEANDTANYYCQQNNEDPYTFGQGTKLEIKR
notes: also called TPP-3658 VK7-3
As for B6, the binding result in test [1] is given as “no binding (tested: 10 µM (log M -5))”. The same molecule returned an EC50 in test [2] of 0.65 nM.

B7: TPP-3639 (HU1573-V4-hIgG2Kappa) (antibody, V domains shown)
VH: EVQLVESGGGLVQPGGSLRLSCAASGFTFSSYYMNWVRQAPGKGLEWVADIRLKSNNYEKHYADSVKGRFTISRDNAKNSLYLQMNSLRAEDTAVYYCAREGDYFDYWGQGTLVTVSS
VL: DIVLTQSPASLAVSPGQRATITCRASESVDSFGATFMHWYQQKPGQPPKLLIYLASNLESGVPARFSGSGSGTDFTLTINPVEANDTANYYCQQNNEDPYTFGQGTKLEIKR
notes: also called TPP-3639 VK7-3
Take B7: the EC50 in test [2] was determined as 0.42 nM. Also, in test [4], the binding result is on record as “no binding”.

Broadly, the EC50 is the concentration that produces a half-maximal response. The low end stands for greater potency, the high end for weaker potency. The term Kd denotes a measure of binding affinity in units of concentration.
